The text below walks through data of US20220242973A1 (Molecular Partners, published 2022).

The target of experiment [1] is T1, Recombinant human FAP (fibroblast activation protein) (human, UniProt Q12884 26-760).
T1 sequence (looked up): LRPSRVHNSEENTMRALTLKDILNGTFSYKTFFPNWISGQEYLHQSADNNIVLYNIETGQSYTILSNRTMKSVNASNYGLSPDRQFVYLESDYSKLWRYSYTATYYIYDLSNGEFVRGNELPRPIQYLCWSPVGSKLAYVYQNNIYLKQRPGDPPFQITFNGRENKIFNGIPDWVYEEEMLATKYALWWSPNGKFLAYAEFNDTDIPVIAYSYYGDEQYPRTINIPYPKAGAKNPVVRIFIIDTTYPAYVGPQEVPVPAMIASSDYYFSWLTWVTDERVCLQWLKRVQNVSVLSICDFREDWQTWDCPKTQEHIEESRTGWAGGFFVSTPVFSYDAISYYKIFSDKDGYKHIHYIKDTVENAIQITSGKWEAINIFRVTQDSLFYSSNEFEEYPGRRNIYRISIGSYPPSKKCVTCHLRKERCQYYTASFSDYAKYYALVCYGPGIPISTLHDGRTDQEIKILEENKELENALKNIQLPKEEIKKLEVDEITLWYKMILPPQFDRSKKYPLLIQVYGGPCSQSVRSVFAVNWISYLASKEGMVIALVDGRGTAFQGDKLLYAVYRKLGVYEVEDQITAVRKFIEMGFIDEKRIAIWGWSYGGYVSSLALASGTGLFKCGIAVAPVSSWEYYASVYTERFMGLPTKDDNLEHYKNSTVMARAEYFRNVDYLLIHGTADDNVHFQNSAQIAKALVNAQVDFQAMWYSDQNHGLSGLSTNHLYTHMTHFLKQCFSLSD
Kind of experiment: cell-based or functional assay.

The target of experiment [2] is T2, Human FAP expressed on the cell surface (WI38, CHO-FAP1.9, U87MG cells) (human, UniProt Q12884 1-760).
T2 construct: whole, on cells; Endogenous on WI38 and U87MG cells; from a human FAP cDNA (OriGene) in CHO-FAP1.9 cells; also called hFAP; FAP+ cells
T2 sequence (looked up): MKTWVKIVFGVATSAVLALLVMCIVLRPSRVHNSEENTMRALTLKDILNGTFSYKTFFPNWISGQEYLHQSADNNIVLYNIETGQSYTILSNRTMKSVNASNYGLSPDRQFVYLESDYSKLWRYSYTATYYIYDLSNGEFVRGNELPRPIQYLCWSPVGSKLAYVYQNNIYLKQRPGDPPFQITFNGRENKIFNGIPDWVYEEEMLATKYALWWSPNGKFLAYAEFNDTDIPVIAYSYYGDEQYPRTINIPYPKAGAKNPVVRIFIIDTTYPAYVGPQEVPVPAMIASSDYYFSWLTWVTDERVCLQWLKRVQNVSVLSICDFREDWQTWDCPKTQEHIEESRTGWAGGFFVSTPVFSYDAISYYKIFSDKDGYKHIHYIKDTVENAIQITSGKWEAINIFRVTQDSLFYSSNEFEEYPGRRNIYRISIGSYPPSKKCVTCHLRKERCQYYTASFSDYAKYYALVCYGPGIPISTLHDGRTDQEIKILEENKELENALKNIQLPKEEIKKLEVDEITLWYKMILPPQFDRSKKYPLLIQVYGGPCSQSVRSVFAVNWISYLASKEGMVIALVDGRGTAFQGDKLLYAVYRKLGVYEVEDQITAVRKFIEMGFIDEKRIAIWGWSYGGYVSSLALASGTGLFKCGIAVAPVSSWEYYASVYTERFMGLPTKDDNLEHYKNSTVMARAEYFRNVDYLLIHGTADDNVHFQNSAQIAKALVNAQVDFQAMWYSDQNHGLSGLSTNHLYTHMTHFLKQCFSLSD
The experiment is described as follows: FACS on FAP-expressing WI38 cells, Penta-His AF647 detection. The protocol: Using multi-well plates, 20,000 WI38 cells were added per well in 50 μl of PBS. 50 μl of appropriate dilutions (2× dilution steps) of ankyrin repeat protein was then added to the cells and incubated for 30 minutes on ice. After the ankyrin repeat protein-binding reaction, cells were washed twice with PBS. Direct immunofluorescent detection of the His-tagged ankyrin repeat proteins using Penta-His AF647 conjugate (QIAgen) and determination of live cells using LIVE/DEAD™ Fixable Green Dead Cell Stain Kit (ThermoFisher) were then performed together in one step. The Penta-His AF647 conjugate and the LIVE/DEAD™ Fixable Green dye were applied to the cells together in 1/200 (Penta-His) and 1/1000 (LID Fixable) final dilutions and incubated for 20-30 minutes on ice. After washing the cells with PBS, cells were re-suspended in 1× CellFix™ buffer (BD Biosciences) (10× stock was diluted 1/10 in water). The samples were incubated in CellFix™ buffer for 15-20 minutes at RT, then spun down at 400 g for 5 min. Supernatant was discarded and cells were re-suspended in 200 μl PBS and stored at 4° C. until acquisition and FACS analysis. Acquisition and FACS analysis, including the determination of median fluorescence intensity (MFI), were done within 5 days after staining using an AttuneNxT instrument. Binding curves were fitted by non-linear regression curve fitting using GraphPad Prism software (v 7.0.4).
EC₅₀ values were determined using standard procedures known to the person skilled in the art. […] Table 2 provides the EC₅₀ values of selected ankyrin repeat proteins as examples.

Experiment [3] has as its target T1, Recombinant human FAP (fibroblast …). The experiment is described as follows: SPR (ProteOn), human FAP immobilized on GLC chip. The protocol: Briefly, human FAP was diluted in 10 mM Na-acetate pH 5.3 buffer and covalently immobilized on a GLC chip (BioRad) to a level of around 2000 resonance units (RU). The interaction of ankyrin repeat protein and hFAP was then measured by injecting 200 μl running buffer (PBS, pH 7.4 containing 0.005% Tween 20®) containing serial dilutions of ankyrin repeat proteins covering a concentration range between 30 nM and 0.5 nM (on-rate measurement), followed by a running buffer flow for at least 25 minutes at a constant flow rate of 100 μl/min (off-rate measurement). The regeneration was performed using 15 μl of 10 mM Glycine pH 2 followed by 15 μl of 124 mM H₃PO₄. The signals (i.e. resonance unit (RU) values) of the interspots and a reference injection (i.e. injection of running buffer only) were subtracted from the RU traces obtained after injection of ankyrin repeat protein (double-referencing). Based on the SPR traces obtained from the on-rate and off-rate measurements, the on- and off-rate of the corresponding ankyrin repeat protein—FAP interaction was determined.
Dissociation constants (KD) were calculated from the estimated on- and off-rates using standard procedures known to the person skilled in the art. […] Table 1 provides the KD values of some selected ankyrin repeat proteins as examples.

B1: DARPin® protein #5 (designed binder)
chain: MRGSHHHHHHGSYPYDVPDYAGSDLGYTLLEAARRGQDDEVRELLKAGADVNAKDTIGYTPLHYAAQVGHLEIVEVLLKAGADVNAKDTQGITPLHVAAATGHLEIVEVLLKAGADVNAQDSKGRTPADLAAEQGHEDIAEVLQKLN
Take B1: in experiment [1], the “FAP activity (%)” value is 103%. Besides, the concentration giving a half-maximal response (EC50) in experiment [2] is 0.654 nM.

B2: DARPin® protein #25 (designed binder)
chain: MRGSHHHHHHGSYPYDVPDYAGSDLGYKLLEAARRGQDDEVRELLKAGADVNAKDVIGYTPLHYAASEGHLEIVEVLLKAGADVNAKDTKGITPLHVAASTGHLEIVEVLLKAGADVNAQDLRGYTPADLAARQGHEDIGEVLQKLN
Turning to B2, in experiment [1], the “FAP activity (%)” value stood at 110%.

B3: DARPin® protein #11 (designed binder)
chain: MRGSHHHHHHGSYPYDVPDYAGSDLGKKLLEAARAGQDDEVRILLAAGADVNAKDTWGWTPLHLAAKSGHLEIVEVLLKAGADVNAKDYHGVTPLHLATFWGHLEIVEVLLKAGADVNAKDWYGETPLHLAAIRGHLEIVEVLLKAGADVNAQDKSGKTPADLAADAGHEDIAEVLQKLN
Turning to B3, the “FAP activity (%)” value in experiment [1] is 117%. Further, the Kd in experiment [3] turned out to be 0.057 nM. Further, in experiment [2], a half-maximal response (EC50) required 0.523 nM.

B4: DARPin® protein #17 (designed binder)
chain: MRGSHHHHHHGSYPYDVPDYAGSDLGKKLLEAARAGQDDEVRILMANGADVNATDLMGRTPLHLAASRGHLEIVEVLLKNGADVNADDKYGITSLHLAAFLGHLEIVEVLLKYGADVNAIDFDGRTPLHPAAYRGHLEIVEVLLKHGADVNAQDKFGQTAFDISIDNGNEDLAEILQKLN
With B4, in experiment [1], the “FAP activity (%)” value was 96%. Besides, the equilibrium dissociation constant (Kd) in experiment [3] was determined as 0.063 nM.

B5: DARPin® protein #1 (designed binder)
chain: MRGSHHHHHHGSYPYDVPDYAGSDLGKKLLEAARAGQDDEVRILLAAGADVNAKDQYGITPLHLAAFRGHLEIVEVLLKHGAGVNADDMDGRTPLHPAAYKGHLEIVEVLLKNGADVNAQDKFGKTAFDISIDNGNEDLAEILQKLN
For the molecule B5, in experiment [1], the “FAP activity (%)” value is 115%. Moreover, the Kd in experiment [3] worked out at 3.6 nM. In experiment [2], this molecule came in with an EC50 of 3.17 nM.

B6: DARPin® protein #10 (designed binder)
chain: MRGSHHHHHHGSYPYDVPDYAGSDLGKKLLEATRAGQDDEVRILLAAGADVNAKDEYGITPLHLAAFRGHLEIVEVLLKHGADVNAIDYNGRTPLHPAAYSGHLEIVEVLLKYGADVNAQDKFGKTAFDISIDNGNEDLAEILQKLN
In the case of B6, the “FAP activity (%)” value in experiment [1] is 120%. In addition, the Kd in experiment [3] amounted to 10.4 nM. The molecule also showed a concentration giving a half-maximal response (EC50) in experiment [2] of 0.512 nM.

B7: DARPin® protein #16 (designed binder)
chain: MRGSHHHHHHGSYPYDVPDYAGSDLGKKLLEAARAGQDDEVRILMANGTDVNATDMTGRTPLHLAALYGHLEIVEVLLKYGADVNALDKFGITPLHLAAFMGHLEIVEVLLKYGADVNAADLDGRTPLHPTAYRGHLEIVEVLLKNGADVNAQDKFGKTAFDISIDNGNEDLAEILQKLN
Consider B7, for which the “FAP activity (%)” value in experiment [1] was 97%. For the same molecule, the Kd in experiment [3] worked out at 0.023 nM.

B8: DARPin® protein #20 (designed binder)
chain: MRGSHHHHHHGSYPYDVPDYAGSDLGEKLLIAALFGQDEEVRILLAAGADVNAKDEWGHTPLHKAALSGHLEIVEVLLKAGADVNAKDQKGSTPLHWAATRGHLEIVEVLLKAGADVNAQDHIGRTPADLAANFGHEDIAEVLQKLN
Turning to B8, the “FAP activity (%)” value in experiment [1] was found to be 104%. In addition, the dissociation constant (Kd) in experiment [3] came to 0.115 nM.

B9: DARPin® protein #6 (designed binder)
chain: MRGSHHHHHHGSYPYDVPDYAGSDLGKKLLEAARAGQDDEVRELLKAGADVNAKDEWGKTPLHYAAALGHLEIVEVLLKAGADVNAKDQYGATPLHIAAFAGHLEIVEVLLKAGADVNAKDAWGFTPLHLAATRGHLEIVEVLLKAGADVNAQDKSGKTPADLAADAGHEDIVEVLQKLN
In the case of B9, the “FAP activity (%)” value in experiment [1] came out at 146%. Moreover, the dissociation constant Kd in experiment [3] amounted to 0.303 nM.

B10: DARPin® protein #8 (designed binder)
chain: MRGSHHHHHHGSYPYDVPDYAGSDLGKKLLEAARAGQDDEVRELLKAGADVNAKDQHGKTPLHYAAALGHLEIVEVLLKAGADVNAKDRWGATPLHIAAFAGHLEIVEVLLKAGADVNAKDEVGWTPLHLAARFGHLEIVEVLLKAGADVNAQDKSGKTPADLAADAGHEDIVEVLQKLN
Regarding B10, in experiment [1], the “FAP activity (%)” value was found to be 97%. Further, in experiment [3], the dissociation constant Kd worked out at 0.12 nM.

B11: DARPin® protein #31 (designed binder)
chain: MRGSHHHHHHGSYPYDVPDYAGSDLGKKLLEAARAGQDDEVRELLKAGADVNAKDEFGKTPLHLAAALGHLEIVEVLLKAGADVNAKGLWGETPLHVAAFAGHLEIVEVLLKAGADVNAKDTYGYTPLHLAASRGHLEIVEVLLKAGADVNAQDKSGKTPADLAADAGHEDIAEVLQKLN
B11: in experiment [1], the “FAP activity (%)” value is 123%. The Kd in experiment [3] was found to be 0.097 nM.

B12: DARPin® protein #12 (designed binder)
chain: MRGSHHHHHHGSYPYDVPDYAGSDLGKKLLEAARAGQDDEVRILLAAGADVSAKDQWGWTPLHLAARVGHLEIVEVLLKAGADVNAKDVRGVTPLHLAAFHGHLEIVEVLLKAGADVNAKDYAGHTPLHLAAWQGHLEIIEDLLKAGADVNAQDKSGKTPADLAADAGHEDIAEVLQKLN
As to B12, in experiment [1], the “FAP activity (%)” value is 114%. In experiment [3], the Kd was 0.194 nM. Moreover, the EC50 in experiment [2] is 0.789 nM.

B13: DARPin® protein #13 (designed binder)
chain: MRGSHHHHHHGSYPYDVPDYAGSDLGKKLLEAARAGQDDEVRILLAAGADVNAKDDWGWTPLHLAARHGHLEIVEVLLKAGTDVNAKDKRGVTPLHLAAYIGHLEIAEVLLKAGADVNAKDFQGWTPLHLAAVRGHLEIVEVLLKAGADVNAQDKSGKTPADLAADAGHEDIAEVLQKLN
In the case of B13, the “FAP activity (%)” value in experiment [1] is 88%. Moreover, the Kd in experiment [3] stood at 0.01 nM. Also, in experiment [2], it took 0.307 nM to reach a half-maximal effect (EC50).

For orientation: EC50 means the concentration needed to bring the measured effect to its halfway point. By Kd is commonly meant the constant that tells how readily two partners part at equilibrium.
